Results as given in patent US20260209344A1 (NONA BIOSCIENCES SUZHOU, published 2026).
Values belong to the binder of their own block, whether it stands above or below them.

Key:
[1] = target: T1, human CLDN18.1 (claudin 18.1) (human, UniProt P56856 1-261); test: FACS on HEK293 hCLDN18.1 cells
T1 construct: whole, on cells; HEK293 hCLDN18.1); also called hCLDN18.1; CLDN18A1
Procedure: (§1) The cell density was adjusted to 10⁶ cells/ml, and 50 μl of cell suspension was added to each well of a 96-well plate. Antibodies were diluted to different concentrations with FACS buffer and 50 μl of antibody dilution was added to each well of the 96-well plate. After incubation at 4° C. for 2 hours, the plate was washed 2 times with FACS buffer. […] After incubation at 4° C. for 1 hour, the plate was washed 2 times with FACS buffer. The cells were resuspended with fixative for monitoring the fluorescence of the cells using a FACS machine (ACEA NovoCyte).

[2] = target: T2, human CLDN18.2 (claudin 18.2) (human); test: FACS on NUGC4_D8 cells endogenously expressing CLDN18.2
T2 construct: HEK293 hCLDN18.2) or endogenously on NUGC4_D8 cells; also called hCLDN18.2; CLD18A2
Procedure: as §1

[3] = target: T2, human CLDN18.2 (claudin 18.2); test: FACS on NUGC4_D8 cells
Procedure: as §1

[4] = target: T2, human CLDN18.2 (claudin 18.2); test: cell-based or functional assay
[5] = target: T2, human CLDN18.2 (claudin 18.2); test: FACS on NUGC4_D8 cells endogenously expressing CLDN18.2; remark: listed apart in the source
Procedure: as §1

[6] = target: T2, human CLDN18.2 (claudin 18.2); test: cell-based or functional assay; remark: listed apart in the source
[7] = target: T2, human CLDN18.2 (claudin 18.2); test: cell-based or functional assay; remark: listed apart in the source
[8] = target: T2, human CLDN18.2 (claudin 18.2); test: FACS on HEK293 hCLDN18.2 cells, APC anti-human IgG secondary
Procedure: as §1

T1 sequence (P56856 whole entry): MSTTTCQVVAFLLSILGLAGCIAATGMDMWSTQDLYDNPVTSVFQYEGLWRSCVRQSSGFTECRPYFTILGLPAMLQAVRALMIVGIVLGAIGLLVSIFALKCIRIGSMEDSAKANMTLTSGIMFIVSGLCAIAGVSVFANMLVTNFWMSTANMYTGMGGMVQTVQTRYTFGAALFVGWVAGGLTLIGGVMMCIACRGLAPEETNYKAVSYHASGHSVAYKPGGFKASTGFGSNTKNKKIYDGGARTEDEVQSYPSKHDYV

- binding result [1]: binds
B5: PR003292 (antibody, human IgG1, kappa)
heavy: EVQLLESGGGLVQPGGSLRLSCAASGFTFSSFVMSWVRQAPGKGLEWVSTISGSGRSTYYADSVKGRFTISRDNSKNTLHLQMNSLRAEDTAVYYCAKDAAAAGTKFDYWGQGTLVTVSSASTKGPSVFPLAPSSKSTSGGTAALGCLVKDYFPEPVTVSWNSGALTSGVHTFPAVLQSSGLYSLSSVVTVPSSSLGTQTYICNVNHKPSNTKVDKKVEPKSCDKTHTCPPCPAPELLGGPSVFLFPPKPKDTLYITREPEVTCVVVDVSHEDPEVKFNWYVDGVEVHNAKTKPREEQYNSTYRVVSVLTVLHQDWLNGKEYKCKVSNKALPAPIEKTISKAKGQPREPQVYTLPPSREEMTKNQVSLTCLVKGFYPSDIAVEWESNGQPENNYKTTPPVLDSDGSFFLYSKLTVDKSRWQQGNVFSCSVMHEALHNHYTQKSLSLSPGK
light: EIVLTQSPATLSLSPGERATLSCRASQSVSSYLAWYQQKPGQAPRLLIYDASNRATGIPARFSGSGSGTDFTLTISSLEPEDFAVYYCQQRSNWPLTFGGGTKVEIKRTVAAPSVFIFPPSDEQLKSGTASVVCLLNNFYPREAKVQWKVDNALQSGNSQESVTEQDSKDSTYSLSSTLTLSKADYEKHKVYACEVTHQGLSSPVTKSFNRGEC

- binding result [1]: binds
B6: PR003293 (antibody, human IgG1, kappa)
heavy: EVQLLESGGGLVQPGGSLRLSCAASGFTFSSFVMSWVRQAPGKGLEWVSTISGSGRSTYYADSVKGRFTISRDNSKNTLHLQMNSLRAEDTAVYYCAKDAAAAGTKFDYWGQGTLVTVSSASTKGPSVFPLAPSSKSTSGGTAALGCLVKDYFPEPVTVSWNSGALTSGVHTFPAVLQSSGLYSLSSVVTVPSSSLGTQTYICNVNHKPSNTKVDKKVEPKSCDKTHTCPPCPAPELLGGPDVFLFPPKPKDTLYITREPEVTCVVVDVSHEDPEVKFNWYVDGVEVHNAKTKPREEQYNSTYRVVSVLTVLHQDWLNGKEYKCKVSNKALPAPEEKTISKAKGQPREPQVYTLPPSREEMTKNQVSLTCLVKGFYPSDIAVEWESNGQPENNYKTTPPVLDSDGSFFLYSKLTVDKSRWQQGNVFSCSVMHEALHNHYTQKSLSLSPGK
light: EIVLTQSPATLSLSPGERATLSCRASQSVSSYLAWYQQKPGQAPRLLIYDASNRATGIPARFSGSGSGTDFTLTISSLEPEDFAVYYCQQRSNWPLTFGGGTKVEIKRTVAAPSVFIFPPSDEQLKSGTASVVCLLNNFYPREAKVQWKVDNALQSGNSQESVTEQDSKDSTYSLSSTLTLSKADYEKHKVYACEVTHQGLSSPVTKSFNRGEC

- binding result [1]: binds
B7: PR003340 (antibody, human IgG1, kappa)
heavy: EVQLLESGGGLVQPGGSLRLSCAASGFTFSSFVMSWVRQAPGKGLEWVSTISGSGRSTYYADSVKGRFTISRDNSKNTLHLQMNSLRAEDTAVYYCAKDAAAAGTKFDYWGQGTLVTVSSASTKGPSVFPLAPSSKSTSGGTAALGCLVKDYFPEPVTVSWNSGALTSGVHTFPAVLQSSGLYSLSSVVTVPSSSLGTQTYICNVNHKPSNTKVDKKVEPKSCDKTHTCPPCPAPELLGGPDVFLFPPKPKDTLMISRTPEVTCVVVDVSHEDPEVQFNWYVDGVEVHNAKTKPREEQFNSTFRVVSVLTVVHQDWLNGKEYKCKVSNKALPAPEEKTISKTKGQPREPQVYTLPPSREEMTKNQVSLTCLVKGFYPSDIAVEWESNGQPENNYKTTPPMLDSDGSFFLYSKLTVDKSRWQQGNVFSCSVMHEALHNHYTQKSLSLSPGK
light: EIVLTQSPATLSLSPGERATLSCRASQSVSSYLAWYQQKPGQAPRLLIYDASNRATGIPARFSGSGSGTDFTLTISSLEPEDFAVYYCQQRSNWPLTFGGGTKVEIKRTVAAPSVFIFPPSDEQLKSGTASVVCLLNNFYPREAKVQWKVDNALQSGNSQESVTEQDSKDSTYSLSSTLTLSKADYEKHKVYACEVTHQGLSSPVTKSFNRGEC

Second part, the binder before the results:

B1: PR002725 (antibody, human IgG1, kappa, V domains shown)
VH: EVQLLESGGGLVQPGGSLRLSCAASGFTFSGYVMSWVRQAPGKGLEWVSAISGSGGSKYYADSVKGRFTISRDNSKNTLYLQMNSLRAEDTAVYYCAKGDIAVLLFDYWGQGTLVTVSS
VL: EMVMTQSPATLSVSPGERATLSCRASQSVSRNLAWFQQKPGQAPRLLIYGASTRATGIPARFSGSGSGTEFTLTISSLQSEDFAVYYCQQYNNWPLTFGGGTKVEIKR
notes: Human IgG1/kappa; also called clone 11C12-13C2
- binding result [1]: binds

B2: PR002727 (antibody, human IgG1, kappa, V domains shown)
VH: EVQLVESGGGVVQPGRSLRLSCAASGFTFSSYGMHWVRQAPGKGLEWVAVIWYDGSNKYYADSVKGRFTISRDNSKNTLYLQMNSLRAEDTAVYYCAKDGYYGSGTYYYYVMNAWGQGASVTVSS
VL: EIVMTQSPATLSVSPGERVTLSCRASQSVSSNLAWYQQKPGQAPRLLIYGASTRATGIPARFSGSGSGTEFTLTISSLQSEDFAVYYCQQYNYWPLTFGGGTKVEIKR
notes: Human IgG1/kappa; also called clone 31H3E2
- binding result [2]: binds

B3: PR003897 (antibody, human IgG1, kappa)
heavy: QVQLVESGGGLVQPGGSLRLSCATSGFTFSSYAMSWVRQAPGKGLEWVSLISGSGGSPYYADSVKGRFTISRDNSKNTLYLQMNSLRAEDTAVYYCAKGVVNWGSLFDYWGQGTLVTVSSASTKGPSVFPLAPSSKSTSGGTAALGCLVKDYFPEPVTVSWNSGALTSGVHTFPAVLQSSGLYSLSSVVTVPSSSLGTQTYICNVNHKPSNTKVDKKVEPKSCDKTHTCPPCPAPELLGGPDVFLFPPKPKDTLMISRTPEVTCVVVDVSHEDPEVQFNWYVDGVEVHNAKTKPREEQFNSTFRVVSVLTVVHQDWLNGKEYKCKVSNKALPAPEEKTISKTKGQPREPQVYTLPPSREEMTKNQVSLTCLVKGFYPSDIAVEWESNGQPENNYKTTPPMLDSDGSFFLYSKLTVDKSRWQQGNVFSCSVMHEALHNHYTQKSLSLSPGK
light: not shown
- binding result [3]: binds
- binding result [1]: binds

B4: IMAB362 analogue (antibody, human IgG1, kappa, V domains shown)
VH: QVQLQQPGAELVRPGASVKLSCKASGYTFTSYWINWVKQRPGQGLEWIGNIYPSDSYTNYNQKFKDKATLTVDKSSSTAYMQLSSPTSEDSAVYYCTRSWRGNSFDYWGQGTTLTVSS
VL: DIVMTQSPSSLTVTAGEKVTMSCKSSQSLLNSGNQKNYLTWYQQKPGQPPKLLIYWASTRESGVPDRFTGSGSGTDFTLTISSVQAEDLAVYYCQNDYSYPFTFGSGTKLEIKR
notes: Home-made positive control; variable region identical to IMAB362, a few amino acids differ in the constant region; also called PR000400
- EC50 (nM), endocytosis in NUGC4_D8 cells (FACS) [4]: 0.4 nM
- EC50 [5]: 20.7 nM
- EC50 (nM), ADCC with human PBMC on NUGC4_D8 cells [6]: 0.91 nM
- EC50 (nM), CDC on HEK293 hCLDN18.2 cells [7]: 1.07 nM
- EC50 [8]: 4 nM
